The chains are these.
B1: GpH7-A5/GpH7-B3 variant (T335_16H)/GpL16-k0 (antibody, human IgG1, kappa)
heavy 1: not shown
heavy 2: not shown
light: DIVMTQSPLSLPVTPGEPASISCQASESLVHSNRNTYLHWYLQKPGQSPQLLIYKVSNRFSGVPDRFSGSGSGTDFTLKISRVEAEDVGVYYCSQNTHVPPTFGQGTKVEIERTVAAPSVFIFPPSDEQLKSGTASVVCLLNNFYPREAKVQWKVDNALQSGNSQESVTEQDSKDSTYSLSSTLTLSKADYEKHKVYACEVTHQGLSSPVTKSFNRGEC
notes: Heterodimerized; only the B3 chain altered; also called He Ab T335_16H
B2: GpH7-A5/GpH7-B3 variant (Y296_06M)/GpL16-k0 (antibody, human IgG1, kappa)
heavy 1: not shown
heavy 2: not shown
light: DIVMTQSPLSLPVTPGEPASISCQASESLVHSNRNTYLHWYLQKPGQSPQLLIYKVSNRFSGVPDRFSGSGSGTDFTLKISRVEAEDVGVYYCSQNTHVPPTFGQGTKVEIERTVAAPSVFIFPPSDEQLKSGTASVVCLLNNFYPREAKVQWKVDNALQSGNSQESVTEQDSKDSTYSLSSTLTLSKADYEKHKVYACEVTHQGLSSPVTKSFNRGEC
notes: Heterodimerized; only the B3 chain altered; also called He Ab Y296_06M
B3: GpH7-A5/GpH7-B3 variant (T335_18N)/GpL16-k0 (antibody, human IgG1, kappa)
heavy 1: not shown
heavy 2: not shown
light: DIVMTQSPLSLPVTPGEPASISCQASESLVHSNRNTYLHWYLQKPGQSPQLLIYKVSNRFSGVPDRFSGSGSGTDFTLKISRVEAEDVGVYYCSQNTHVPPTFGQGTKVEIERTVAAPSVFIFPPSDEQLKSGTASVVCLLNNFYPREAKVQWKVDNALQSGNSQESVTEQDSKDSTYSLSSTLTLSKADYEKHKVYACEVTHQGLSSPVTKSFNRGEC
notes: Heterodimerized; only the B3 chain altered; also called He Ab T335_18N
B4: GpH7-A5/GpH7-B3 variant (Y296_11K)/GpL16-k0 (antibody, human IgG1, kappa)
heavy 1: not shown
heavy 2: not shown
light: DIVMTQSPLSLPVTPGEPASISCQASESLVHSNRNTYLHWYLQKPGQSPQLLIYKVSNRFSGVPDRFSGSGSGTDFTLKISRVEAEDVGVYYCSQNTHVPPTFGQGTKVEIERTVAAPSVFIFPPSDEQLKSGTASVVCLLNNFYPREAKVQWKVDNALQSGNSQESVTEQDSKDSTYSLSSTLTLSKADYEKHKVYACEVTHQGLSSPVTKSFNRGEC
notes: Heterodimerized; only the B3 chain altered; also called He Ab Y296_11K
B5: GpH7-A5/GpH7-B3 variant (T335_19Q)/GpL16-k0 (antibody, human IgG1, kappa)
heavy 1: not shown
heavy 2: not shown
light: DIVMTQSPLSLPVTPGEPASISCQASESLVHSNRNTYLHWYLQKPGQSPQLLIYKVSNRFSGVPDRFSGSGSGTDFTLKISRVEAEDVGVYYCSQNTHVPPTFGQGTKVEIERTVAAPSVFIFPPSDEQLKSGTASVVCLLNNFYPREAKVQWKVDNALQSGNSQESVTEQDSKDSTYSLSSTLTLSKADYEKHKVYACEVTHQGLSSPVTKSFNRGEC
notes: Heterodimerized; only the B3 chain altered; also called He Ab T335_19Q
B6: GpH7-A5/GpH7-B3 variant (T335_20W)/GpL16-k0 (antibody, human IgG1, kappa)
heavy 1: not shown
heavy 2: not shown
light: DIVMTQSPLSLPVTPGEPASISCQASESLVHSNRNTYLHWYLQKPGQSPQLLIYKVSNRFSGVPDRFSGSGSGTDFTLKISRVEAEDVGVYYCSQNTHVPPTFGQGTKVEIERTVAAPSVFIFPPSDEQLKSGTASVVCLLNNFYPREAKVQWKVDNALQSGNSQESVTEQDSKDSTYSLSSTLTLSKADYEKHKVYACEVTHQGLSSPVTKSFNRGEC
notes: Heterodimerized; only the B3 chain altered; also called He Ab T335_20W
B7: GpH7-A5/GpH7-B3 variant (Y300_03V)/GpL16-k0 (antibody, human IgG1, kappa)
heavy 1: not shown
heavy 2: not shown
light: DIVMTQSPLSLPVTPGEPASISCQASESLVHSNRNTYLHWYLQKPGQSPQLLIYKVSNRFSGVPDRFSGSGSGTDFTLKISRVEAEDVGVYYCSQNTHVPPTFGQGTKVEIERTVAAPSVFIFPPSDEQLKSGTASVVCLLNNFYPREAKVQWKVDNALQSGNSQESVTEQDSKDSTYSLSSTLTLSKADYEKHKVYACEVTHQGLSSPVTKSFNRGEC
notes: Heterodimerized; only the B3 chain altered; also called He Ab Y300_03V
B8: GpH7-A5/GpH7-B3 variant (Y300_11K)/GpL16-k0 (antibody, human IgG1, kappa)
heavy 1: not shown
heavy 2: not shown
light: DIVMTQSPLSLPVTPGEPASISCQASESLVHSNRNTYLHWYLQKPGQSPQLLIYKVSNRFSGVPDRFSGSGSGTDFTLKISRVEAEDVGVYYCSQNTHVPPTFGQGTKVEIERTVAAPSVFIFPPSDEQLKSGTASVVCLLNNFYPREAKVQWKVDNALQSGNSQESVTEQDSKDSTYSLSSTLTLSKADYEKHKVYACEVTHQGLSSPVTKSFNRGEC
notes: Heterodimerized; only the B3 chain altered; also called He Ab Y300_11K
B9: GpH7-A5/GpH7-B3 variant (Y300_19Q)/GpL16-k0 (antibody, human IgG1, kappa)
heavy 1: not shown
heavy 2: not shown
light: DIVMTQSPLSLPVTPGEPASISCQASESLVHSNRNTYLHWYLQKPGQSPQLLIYKVSNRFSGVPDRFSGSGSGTDFTLKISRVEAEDVGVYYCSQNTHVPPTFGQGTKVEIERTVAAPSVFIFPPSDEQLKSGTASVVCLLNNFYPREAKVQWKVDNALQSGNSQESVTEQDSKDSTYSLSSTLTLSKADYEKHKVYACEVTHQGLSSPVTKSFNRGEC
notes: Heterodimerized; only the B3 chain altered; also called He Ab Y300_19Q
B10: GpH7-A5/GpH7-B3 variant (Y296_12R)/GpL16-k0 (antibody, human IgG1, kappa)
heavy 1: not shown
heavy 2: not shown
light: DIVMTQSPLSLPVTPGEPASISCQASESLVHSNRNTYLHWYLQKPGQSPQLLIYKVSNRFSGVPDRFSGSGSGTDFTLKISRVEAEDVGVYYCSQNTHVPPTFGQGTKVEIERTVAAPSVFIFPPSDEQLKSGTASVVCLLNNFYPREAKVQWKVDNALQSGNSQESVTEQDSKDSTYSLSSTLTLSKADYEKHKVYACEVTHQGLSSPVTKSFNRGEC
notes: Heterodimerized; only the B3 chain altered; also called He Ab Y296_12R
B11: GpH7-A5/GpH7-B3 variant (Y300_08L)/GpL16-k0 (antibody, human IgG1, kappa)
heavy 1: not shown
heavy 2: not shown
light: DIVMTQSPLSLPVTPGEPASISCQASESLVHSNRNTYLHWYLQKPGQSPQLLIYKVSNRFSGVPDRFSGSGSGTDFTLKISRVEAEDVGVYYCSQNTHVPPTFGQGTKVEIERTVAAPSVFIFPPSDEQLKSGTASVVCLLNNFYPREAKVQWKVDNALQSGNSQESVTEQDSKDSTYSLSSTLTLSKADYEKHKVYACEVTHQGLSSPVTKSFNRGEC
notes: Heterodimerized; only the B3 chain altered; also called He Ab Y300_08L
B12: GpH7-A5/GpH7-B3 variant (Y300_14T)/GpL16-k0 (antibody, human IgG1, kappa)
heavy 1: not shown
heavy 2: not shown
light: DIVMTQSPLSLPVTPGEPASISCQASESLVHSNRNTYLHWYLQKPGQSPQLLIYKVSNRFSGVPDRFSGSGSGTDFTLKISRVEAEDVGVYYCSQNTHVPPTFGQGTKVEIERTVAAPSVFIFPPSDEQLKSGTASVVCLLNNFYPREAKVQWKVDNALQSGNSQESVTEQDSKDSTYSLSSTLTLSKADYEKHKVYACEVTHQGLSSPVTKSFNRGEC
notes: Heterodimerized; only the B3 chain altered; also called He Ab Y300_14T
B13: GpH7-A5/GpH7-B3 variant (Y300_06M)/GpL16-k0 (antibody, human IgG1, kappa)
heavy 1: not shown
heavy 2: not shown
light: DIVMTQSPLSLPVTPGEPASISCQASESLVHSNRNTYLHWYLQKPGQSPQLLIYKVSNRFSGVPDRFSGSGSGTDFTLKISRVEAEDVGVYYCSQNTHVPPTFGQGTKVEIERTVAAPSVFIFPPSDEQLKSGTASVVCLLNNFYPREAKVQWKVDNALQSGNSQESVTEQDSKDSTYSLSSTLTLSKADYEKHKVYACEVTHQGLSSPVTKSFNRGEC
notes: Heterodimerized; only the B3 chain altered; also called He Ab Y300_06M
B14: GpH7-A5/GpH7-B3 variant (Y296_16H)/GpL16-k0 (antibody, human IgG1, kappa)
heavy 1: not shown
heavy 2: not shown
light: DIVMTQSPLSLPVTPGEPASISCQASESLVHSNRNTYLHWYLQKPGQSPQLLIYKVSNRFSGVPDRFSGSGSGTDFTLKISRVEAEDVGVYYCSQNTHVPPTFGQGTKVEIERTVAAPSVFIFPPSDEQLKSGTASVVCLLNNFYPREAKVQWKVDNALQSGNSQESVTEQDSKDSTYSLSSTLTLSKADYEKHKVYACEVTHQGLSSPVTKSFNRGEC
notes: Heterodimerized; only the B3 chain altered; also called He Ab Y296_16H
B15: GpH7-A5/GpH7-B3 variant (Y300_02A)/GpL16-k0 (antibody, human IgG1, kappa)
heavy 1: not shown
heavy 2: not shown
light: DIVMTQSPLSLPVTPGEPASISCQASESLVHSNRNTYLHWYLQKPGQSPQLLIYKVSNRFSGVPDRFSGSGSGTDFTLKISRVEAEDVGVYYCSQNTHVPPTFGQGTKVEIERTVAAPSVFIFPPSDEQLKSGTASVVCLLNNFYPREAKVQWKVDNALQSGNSQESVTEQDSKDSTYSLSSTLTLSKADYEKHKVYACEVTHQGLSSPVTKSFNRGEC
notes: Heterodimerized; only the B3 chain altered; also called He Ab Y300_02A
B16: GpH7-A5/GpH7-B3 variant (Y296_20W)/GpL16-k0 (antibody, human IgG1, kappa)
heavy 1: not shown
heavy 2: not shown
light: DIVMTQSPLSLPVTPGEPASISCQASESLVHSNRNTYLHWYLQKPGQSPQLLIYKVSNRFSGVPDRFSGSGSGTDFTLKISRVEAEDVGVYYCSQNTHVPPTFGQGTKVEIERTVAAPSVFIFPPSDEQLKSGTASVVCLLNNFYPREAKVQWKVDNALQSGNSQESVTEQDSKDSTYSLSSTLTLSKADYEKHKVYACEVTHQGLSSPVTKSFNRGEC
notes: Heterodimerized; only the B3 chain altered; also called He Ab Y296_20W
B17: GpH7-A5/GpH7-B3 variant (Y300_13S)/GpL16-k0 (antibody, human IgG1, kappa)
heavy 1: not shown
heavy 2: not shown
light: DIVMTQSPLSLPVTPGEPASISCQASESLVHSNRNTYLHWYLQKPGQSPQLLIYKVSNRFSGVPDRFSGSGSGTDFTLKISRVEAEDVGVYYCSQNTHVPPTFGQGTKVEIERTVAAPSVFIFPPSDEQLKSGTASVVCLLNNFYPREAKVQWKVDNALQSGNSQESVTEQDSKDSTYSLSSTLTLSKADYEKHKVYACEVTHQGLSSPVTKSFNRGEC
notes: Heterodimerized; only the B3 chain altered; also called He Ab Y300_13S
B18: GpH7-A5/GpH7-B3 variant (Y300_20W)/GpL16-k0 (antibody, human IgG1, kappa)
heavy 1: not shown
heavy 2: not shown
light: DIVMTQSPLSLPVTPGEPASISCQASESLVHSNRNTYLHWYLQKPGQSPQLLIYKVSNRFSGVPDRFSGSGSGTDFTLKISRVEAEDVGVYYCSQNTHVPPTFGQGTKVEIERTVAAPSVFIFPPSDEQLKSGTASVVCLLNNFYPREAKVQWKVDNALQSGNSQESVTEQDSKDSTYSLSSTLTLSKADYEKHKVYACEVTHQGLSSPVTKSFNRGEC
notes: Heterodimerized; only the B3 chain altered; also called He Ab Y300_20W

This test deals with T1, FcγRIa extracellular domain with C-terminal His tag (human, UniProt P12314 16-292).
T1 construct: extracellular domain; Expressed in FreeStyle293 cells; used as analyte in Biacore; also called FcgRI; 1a; not shown: His tag at the C terminus
T1 sequence (P12314 16-292): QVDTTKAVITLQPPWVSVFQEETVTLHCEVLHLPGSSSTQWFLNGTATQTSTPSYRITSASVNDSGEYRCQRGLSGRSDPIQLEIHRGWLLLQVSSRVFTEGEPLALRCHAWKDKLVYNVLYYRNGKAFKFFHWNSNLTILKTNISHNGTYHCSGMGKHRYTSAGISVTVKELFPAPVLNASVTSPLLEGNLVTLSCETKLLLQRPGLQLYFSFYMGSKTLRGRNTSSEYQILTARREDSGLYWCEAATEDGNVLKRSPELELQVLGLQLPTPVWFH
The experiment in a line: SPR (Biacore), captured antibody, FcγRIa analyte; relative to GpH7-A5/GpH7-B3/GpL16-k0 = 100.
In the case of B1, the He/Con_1a was 106 % of control.
Then B2, with 104 % of control.
In the case of B3, the He/Con_1a was 106 % of control.
Take B4: the He/Con_1a is 105 % of control.
Then B5, with 105 % of control; and B6, with 106 % of control.
Then B7, with 117 % of control; and B8, with 107 % of control; and B9, with 112 % of control.
To B10 belongs 106 % of control; to B11, 113 % of control.
As for B12, the He/Con_1a was 112 % of control.
To B13 belongs 112 % of control; to B14, 106 % of control.
As to B15, the He/Con_1a was 112 % of control.
Then B16, with 111 % of control.
Regarding B17, the He/Con_1a is 111 % of control.
B18: the He/Con_1a is 112 % of control.

For the origin of these results see US20180155451A1 (published 2018).
